The values that follow come from PMC6156153.

The experiment deals with recombinant staphylococcal protein A (SpA) (Staphylococcus aureus) (UniProt P02976).
Chain of UniProt P02976 (P02976 37-485): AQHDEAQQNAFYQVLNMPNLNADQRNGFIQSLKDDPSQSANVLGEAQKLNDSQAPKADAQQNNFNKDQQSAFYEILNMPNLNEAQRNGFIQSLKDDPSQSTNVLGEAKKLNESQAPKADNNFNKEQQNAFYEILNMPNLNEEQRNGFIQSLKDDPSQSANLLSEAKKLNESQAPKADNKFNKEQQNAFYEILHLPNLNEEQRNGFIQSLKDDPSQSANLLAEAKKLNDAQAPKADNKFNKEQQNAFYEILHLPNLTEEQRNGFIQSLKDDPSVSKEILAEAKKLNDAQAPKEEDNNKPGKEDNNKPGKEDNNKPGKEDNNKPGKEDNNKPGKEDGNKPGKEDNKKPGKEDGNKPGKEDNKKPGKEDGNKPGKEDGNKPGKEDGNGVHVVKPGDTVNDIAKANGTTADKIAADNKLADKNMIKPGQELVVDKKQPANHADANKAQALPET

As for “recombinant murine VHI isotype control IgG3 (antibody genes of the anti-hen egg lysozyme D1.3 mAb)”, the in vivo depletion of adoptively transferred VHIII (T15i) B cells at 72 h after SpA challenge in muMT mice pretreated with 1 mg of the IgG (told of the IgG3 mAbs together) was 60 % depletion.

As to “recombinant murine VHIII IgG3 (variable regions of the anti-PC TEPC15 clone) (antibody)”, the in vivo depletion of adoptively transferred VHIII (T15i) B cells at 72 h after SpA challenge in muMT mice pretreated with 1 mg of the IgG (told of the IgG3 mAbs together) stood at 60 % depletion.
